The Kd is a measure of binding affinity in units of concentration.

The source of these data is PMC3829045.

One assay addresses mouse sFlt-1-Fc (mouse) (UniProt P35969). The experiment in a line: ELISA. For orientation: ELISA stands for enzyme-linked immunosorbent assay.
A further assay has as its target VEGFR-2 (Homo sapiens) (UniProt P35968). As to conditions: cited from earlier work.
Sequence of UniProt P35968 (P35968 20-1356): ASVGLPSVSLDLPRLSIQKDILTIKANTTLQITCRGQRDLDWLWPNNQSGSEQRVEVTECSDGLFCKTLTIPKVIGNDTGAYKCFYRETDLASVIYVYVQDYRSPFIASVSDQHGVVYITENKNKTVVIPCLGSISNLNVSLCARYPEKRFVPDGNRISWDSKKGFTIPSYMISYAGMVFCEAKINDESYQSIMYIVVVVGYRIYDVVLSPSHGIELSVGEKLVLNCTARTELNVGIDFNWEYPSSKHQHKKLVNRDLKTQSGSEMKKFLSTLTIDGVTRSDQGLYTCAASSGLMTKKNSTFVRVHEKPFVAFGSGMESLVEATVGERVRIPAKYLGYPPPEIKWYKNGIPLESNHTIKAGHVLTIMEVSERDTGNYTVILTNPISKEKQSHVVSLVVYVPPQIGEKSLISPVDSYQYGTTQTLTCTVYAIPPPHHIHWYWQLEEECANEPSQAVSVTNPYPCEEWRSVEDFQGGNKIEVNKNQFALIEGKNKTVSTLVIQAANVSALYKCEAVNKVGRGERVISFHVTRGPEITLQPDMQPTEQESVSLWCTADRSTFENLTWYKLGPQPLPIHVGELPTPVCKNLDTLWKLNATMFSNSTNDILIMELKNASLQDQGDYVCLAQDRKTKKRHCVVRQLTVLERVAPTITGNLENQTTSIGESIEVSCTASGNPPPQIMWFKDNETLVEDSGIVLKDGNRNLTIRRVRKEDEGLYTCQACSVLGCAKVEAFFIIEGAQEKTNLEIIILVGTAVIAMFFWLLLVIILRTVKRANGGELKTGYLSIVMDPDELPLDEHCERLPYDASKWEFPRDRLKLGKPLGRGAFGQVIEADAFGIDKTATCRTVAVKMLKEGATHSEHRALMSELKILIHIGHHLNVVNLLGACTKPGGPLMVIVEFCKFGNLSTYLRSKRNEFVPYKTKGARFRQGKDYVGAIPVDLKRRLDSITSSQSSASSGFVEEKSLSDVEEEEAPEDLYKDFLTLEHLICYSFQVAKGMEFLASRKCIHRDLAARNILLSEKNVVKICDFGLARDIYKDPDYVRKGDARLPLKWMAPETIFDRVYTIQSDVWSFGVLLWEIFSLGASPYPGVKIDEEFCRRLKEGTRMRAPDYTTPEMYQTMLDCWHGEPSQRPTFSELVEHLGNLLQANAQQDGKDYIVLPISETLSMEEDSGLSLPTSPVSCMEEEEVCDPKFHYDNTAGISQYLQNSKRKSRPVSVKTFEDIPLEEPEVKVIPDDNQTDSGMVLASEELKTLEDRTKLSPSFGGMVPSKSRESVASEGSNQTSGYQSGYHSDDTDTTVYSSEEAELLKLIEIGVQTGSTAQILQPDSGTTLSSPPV

Sequence of UniProt P35969 (P35969 23-758): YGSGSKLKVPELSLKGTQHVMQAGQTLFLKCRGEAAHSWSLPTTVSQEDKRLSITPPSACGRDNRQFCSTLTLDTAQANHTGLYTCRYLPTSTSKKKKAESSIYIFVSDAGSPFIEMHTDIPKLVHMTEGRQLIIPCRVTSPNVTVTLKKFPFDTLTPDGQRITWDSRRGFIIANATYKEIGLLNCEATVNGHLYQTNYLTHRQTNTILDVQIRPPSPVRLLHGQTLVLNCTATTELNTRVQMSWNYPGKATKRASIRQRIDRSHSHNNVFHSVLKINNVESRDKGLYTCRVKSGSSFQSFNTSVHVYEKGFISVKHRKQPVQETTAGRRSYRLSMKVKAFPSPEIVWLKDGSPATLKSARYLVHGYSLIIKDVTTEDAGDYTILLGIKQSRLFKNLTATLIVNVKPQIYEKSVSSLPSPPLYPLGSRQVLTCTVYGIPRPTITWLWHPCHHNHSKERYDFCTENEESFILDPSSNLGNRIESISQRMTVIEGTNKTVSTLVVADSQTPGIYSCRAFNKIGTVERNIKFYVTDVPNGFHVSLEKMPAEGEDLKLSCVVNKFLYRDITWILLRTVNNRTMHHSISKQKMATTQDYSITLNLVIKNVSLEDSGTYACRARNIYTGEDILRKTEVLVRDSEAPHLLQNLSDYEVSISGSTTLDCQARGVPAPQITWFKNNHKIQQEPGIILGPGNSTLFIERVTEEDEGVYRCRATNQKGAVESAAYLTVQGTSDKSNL

As to VEGF165 (ligand), in the assay with mouse sFlt-1-Fc (mouse), the percent decrease of ELISA-detectable sFlt-1 when VEGF was co-expressed fell in the range of 70 to 80% and the percent decrease of free sFlt-1 in plasma of co-treated mice is more than 70%.
VEGF (from UniProt P15692): the dissociation constant (Kd) with VEGFR-2 (Homo sapiens) is 760 pM.
